B1: DGI-2-40F-4-F6 (peptide, not shown: large carriers)
peptide: SYRNFAMQSSLQVRRGSVVEDGTCWWEGVRCYSGAAAGAPVPYPDPLEPRP
B2: DGI-2-40F-3-B10 (peptide, not shown: large carriers)
peptide: MQAASTLSTYMGAIRMGYPILHWDRGGVQRVDPGLYRGRVAAAGAPVPYPDPLEPRP
B3: DGI-2-40F-3-D6 (peptide, not shown: large carriers)
peptide: GLEPVPFQTDKRIAMGWTREWLVNGYGAAHRRDARMQSGHAAAGAPVPYPDPLEPRP
B4: DGI-2-40F-3-C6 (peptide, not shown: large carriers)
peptide: QMFSKGNWLAHPEGGVALGLSRESQLFRSCREFGYCMGPMAAAGAPVPYPDPLEPRP
B5: DGI-2-40F-3-B122 (peptide, not shown: large carriers)
peptide: HSGNRQSGSRRTHLLNIFCSSDTFVFPGWSAYLSRVCPGDAAAGAPVPYPDPLEPRP
B6: DGI-2-40F-4-F12 (peptide, not shown: large carriers)
peptide: GLYRRAGDASVGFSRWGRFDCQVYFSVECLLGSSWGGYSAAAGAPVPYPDPLEPRP
B7: DGI-2-40F-3-D7 (peptide, not shown: large carriers)
peptide: ALRSLGSGGFGWQAGRASPQGMTHFPYFGWSGMPTARVRPAAAGAPVPYPDPLEPRP
B8: DGI-2-40F-3-D12 (peptide, not shown: large carriers)
peptide: QGSAHVVRPPGVYDVPWKVGMFFHPQNWPNSWGRAYFRSGAAAGAPVPYPDPLEPRP
B9: DGI-2-40F-3-B11 (peptide, not shown: large carriers)
peptide: LAPMFLQNQVRTWAASRRPLPAGPSNARCETGSLSPWVPCAAAGAPVPYPDPLEPRP
B10: DGI-2-40F-3-B116 (peptide, not shown: large carriers)
peptide: GVVRAQQGLRYELQGDRYRLRRTQWLTVTYCSPSWAFAGCAAAGAPVPYPDPLEPRP
B11: DGL-2-40F-3-D10 (peptide, not shown: large carriers)
peptide: TLVTEGNKGSVKAHKDIGVWQLWWDWLSVTDSETVGRVSHAAAGAPVPYPDPLEPRP

The binders below were run against lactate dehydrogenase (LDH) (assay: phage ELISA, 405 nm; LDH coated).
RWSICRGLQYSIPGCAVEDLSDVMAAAAGAPVPYPDPLEPRP (peptide, not shown: large carriers) [DGI-2-20C-4-H316] gave an LDH (OD) of 1 OD.
With LQIVRPAGWKMPGQVGYYIGAAAGAPVPYPDPLEPRP (peptide, not shown: large carriers) [DGI-2-20R-3-A9] the LDH (OD) was 1 OD.
With GLRACDTYLGFCVGARRIDDAAAGAPVPYPDPLEPRP (peptide, not shown: large carriers) [DGI-2-20F-3-B102] the LDH (OD) was 1 OD.
DAGIGWVGSMWFPPGCIGACAAAGAPVPYPDPLEPRP (peptide, not shown: large carriers) [DGI-2-20R-4-E82] gave an LDH (OD) of 1.1 OD.
WAGSTDLWQLWSLWVKPELRAAAGAPVPYPDPLEPRP (peptide, not shown: large carriers) [DGI-2-20F-3-B7] was tested, and the LDH (OD) was 0.9 OD.
Work on GSVLERGCLEFSGFCFSLGHAAAGAPVPYPDPLEPRP (peptide, not shown: large carriers) [DGI-2-20F-3-C1] yielded an LDH (OD) of 1 OD.
B1 gave an LDH (OD) of 1 OD.
With PAMGHCMQVLGPVLEGRSRDQVGRAAAGAPVPYPDPLEPRP (peptide, not shown: large carriers) [DGI-2-20R-4-G6] the LDH (OD) was 1.1 OD.
For B2, the LDH (OD) was 1 OD.
With LTPYSLARSWLSGRPSTGATAAAGAPVPYPDPLEPRP (peptide, not shown: large carriers) [DGI-2-20F-3-C12] the LDH (OD) was 1 OD.
Binder B3 has an LDH (OD) of 1 OD.
FSSTGILLRSGRATAVGHVTAAAGAPVPYPDPLEPRP (peptide, not shown: large carriers) [DGI-2-20F-3-A6] was tested, and the LDH (OD) was 1.1 OD.
With LHFGSVMGWRPPGSLWSRPFGQVHPRSWSGSAAAGAPVPYPDPLEPRP (peptide, not shown: large carriers) [DGI-2-40F-3-D11] the LDH (OD) was 1.3 OD.
For LSHPMSPLRAASQMALTQGVAAAGAPVPYPDPLEPRP (peptide, not shown: large carriers) [DGI-2-20R-4-H7], the LDH (OD) was 1.2 OD.
VAFGEQIRVAMAGTLWQRWRAAAGAPVPYPDPLEPRP (peptide, not shown: large carriers) [DGI-2-20R-3-D5] was tested, and the LDH (OD) was 1.1 OD.
For B4, the LDH (OD) was 0.8 OD.
For B5, the LDH (OD) was 0.8 OD.
RWSLPAYLCRFVSQASCNSRAAAGAPVPYPDPLEPRP (peptide, not shown: large carriers) [DGI-2-20R-3-C12] gave an LDH (OD) of 1 OD.
For LSLLSVVVRSMGASAPQRQVAAAGAPVPYPDPLEPRP (peptide, not shown: large carriers) [DGI-2-20F-3-A7], the LDH (OD) was 0.9 OD.
With B6 the LDH (OD) was 0.9 OD.
Work on SLSLYWDAQVGCEVFWGYCVAAAGAPVPYPDPLEPRP (peptide, not shown: large carriers) [DGI-2-20R-3-C10] yielded an LDH (OD) of 1 OD.
TPDRCLIYSSIQCLLEYSARRGSADAAAGAPVPYPDPLEPRP (peptide, not shown: large carriers) [DGI-2-20C-3-C65] was tested, and the LDH (OD) was 1 OD.
Work on RNWLDKDCVWMGDCGARAGEAAAGAPVPYPDPLEPRP (peptide, not shown: large carriers) [DGI-2-20F-4-E3] yielded an LDH (OD) of 0.9 OD.
Binder TSCQVMFLAGQHLLSRVPRLAAAGAPVPYPDPLEPRP (peptide, not shown: large carriers) [DGL-2-20R-3-B6] has an LDH (OD) of 1 OD.
With B7 the LDH (OD) was 1 OD.
RFWSVSYQGGRVMCREWGYCLPIAAAGAPVPYPDPLEPRP (peptide, not shown: large carriers) [DGI-2-40F-3-C92] was tested, and the LDH (OD) was 0.8 OD.
Binder LTWGPQFGSLQVYSRHRGLPAAAGAPVPYPDPLEPRP (peptide, not shown: large carriers) [DGI-2-20R-4-E4] has an LDH (OD) of 1.2 OD.
In the case of LSVFRPGQFPHVGARGVSRTAAAGAPVPYPDPLEPRP (peptide, not shown: large carriers) [DGI-2-20R-4-G32], the LDH (OD) is reported as 1.1 OD.
In the case of MSTLQGPGHLFQMLRRASLGAAAGAPVPYPDPLEPRP (peptide, not shown: large carriers) [DGI-2-20R-4-H12], the LDH (OD) is reported as 1.3 OD.
Work on ACSVGTALVFPQRWWYLGRSAAAGAPVPYPDPLEPRP (peptide, not shown: large carriers) [DGL-2-20R-3-D6] yielded an LDH (OD) of 1.1 OD.
B8 showed an LDH (OD) of 1 OD.
With SWRLWVSGELQGDRRKGLRGAAAGAPVPYPDPLEPRP (peptide, not shown: large carriers) [DGI-2-20R-3-B7] the LDH (OD) was 1 OD.
Binder TANGHRYGGCGLWCKWMSGMAAAGAPVPYPDPLEPRP (peptide, not shown: large carriers) [DGI-2-20R-4-E2] has an LDH (OD) of 1.1 OD.
With MGSLGPFGNINSLASGIGSVRNRPLLPLHGSPAAAGAPVPYPDPLEPRP (peptide, not shown: large carriers) [DGI-2-40F-3-D72] the LDH (OD) was 1.1 OD.
In the case of B9, the LDH (OD) is reported as 0.9 OD.
B10 was tested, and the LDH (OD) was 0.8 OD.
GNKCFPPHDLFWDPCDQLQSAAAGAPVPYPDPLEPRP (peptide, not shown: large carriers) [DGI-2-20R-4-F6] was tested, and the LDH (OD) was 1 OD.
Work on B11 yielded an LDH (OD) of 0.9 OD.
YDQVWNSLLAAVLGGQELVNAAAGAPVPYPDPLEPRP (peptide, not shown: large carriers) [DGI-2-20F-3-D112] was tested, and the LDH (OD) was 1 OD.
With GMWIRPNGHMFLQGGYTARSAAAGAPVPYPDPLEPRP (peptide, not shown: large carriers) [DGI-2-20R-4-G8] the LDH (OD) was 1.1 OD.
